Positions count from the first letter of the chain named.
T1: hIFNAR-1(1aa-409aa) L274A (human, UniProt P17181 28-436)
T1 construct: range 1-409
T1 sequence (looked up): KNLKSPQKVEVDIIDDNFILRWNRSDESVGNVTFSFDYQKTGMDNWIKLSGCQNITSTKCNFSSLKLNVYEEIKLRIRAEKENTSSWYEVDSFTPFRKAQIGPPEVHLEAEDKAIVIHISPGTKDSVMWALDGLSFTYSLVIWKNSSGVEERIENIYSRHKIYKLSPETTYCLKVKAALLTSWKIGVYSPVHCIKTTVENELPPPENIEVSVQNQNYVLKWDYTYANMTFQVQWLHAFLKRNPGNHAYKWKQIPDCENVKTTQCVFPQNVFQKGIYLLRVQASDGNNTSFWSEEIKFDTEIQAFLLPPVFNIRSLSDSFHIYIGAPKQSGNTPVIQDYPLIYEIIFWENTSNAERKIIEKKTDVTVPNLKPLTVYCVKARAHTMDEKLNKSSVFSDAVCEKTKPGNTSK

T2: hIFNAR-1(1aa-409aa) H273A (human, UniProt P17181 28-436)
T2 construct: range 1-409
T2 sequence (looked up): T1 sequence (looked up) with H246A, A247L

T3: hIFNAR-1(1aa-409aa) Y275A (human, UniProt P17181 28-436)
T3 construct: range 1-409
T3 sequence (looked up): T1 sequence (looked up) with A247L, Y248A

T4: hIFNAR-1(1aa-409aa) K276A (human, UniProt P17181 28-436)
T4 construct: range 1-409
T4 sequence (looked up): T1 sequence (looked up) with A247L, K249A

T5: hIFNAR-1(1aa-409aa) K278A (human, UniProt P17181 28-436)
T5 construct: range 1-409
T5 sequence (looked up): T1 sequence (looked up) with A247L, K251A

T6: human IFNAR-1 on cells (human, UniProt P17181 28-557)
T6 sequence (looked up): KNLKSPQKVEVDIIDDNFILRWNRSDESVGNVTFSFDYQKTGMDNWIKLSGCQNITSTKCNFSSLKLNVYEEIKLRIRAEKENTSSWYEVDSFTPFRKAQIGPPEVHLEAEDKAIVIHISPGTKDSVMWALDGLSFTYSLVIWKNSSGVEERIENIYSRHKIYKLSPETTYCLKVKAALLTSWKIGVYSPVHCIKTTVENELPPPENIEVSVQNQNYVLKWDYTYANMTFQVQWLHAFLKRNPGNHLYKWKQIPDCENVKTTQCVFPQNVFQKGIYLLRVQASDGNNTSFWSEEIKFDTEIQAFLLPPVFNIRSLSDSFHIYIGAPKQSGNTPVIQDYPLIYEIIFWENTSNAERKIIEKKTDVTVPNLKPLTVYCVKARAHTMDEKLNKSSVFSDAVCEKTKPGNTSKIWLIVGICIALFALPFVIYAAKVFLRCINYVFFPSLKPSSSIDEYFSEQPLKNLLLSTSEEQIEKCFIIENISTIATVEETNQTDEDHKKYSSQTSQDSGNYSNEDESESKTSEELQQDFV

T7: human IFNAR-1 protein (form not stated) (human, UniProt P17181 28-436, limits assumed)
T7 construct: bispecific ELISA
T7 sequence (looked up): T1 sequence (looked up) with A247L

B1: Anifrolumab (antibody, V domains shown)
VH: EVQLVQSGAEVKKPGESLKISCKGSGYIFTNYWIAWVRQMPGKGLESMGIIYPGDSDIRYSPSFQGQVTISADKSITTAYLQWSSLKASDTAMYYCARHDIEGFDYWGRGTLVTVSS
VL: EIVLTQSPGTLSLSPGERATLSCRASQSVSSSFFAWYQQKPGQAPRLLIYGASSRATGIPDRLSGSGSGTDFTLTITRLEPEDFAVYYCQQYDSSAITFGQGTRLEIKR
B2: 8G11 chimeric antibody (antibody, V domains shown)
VH: EVQLQQSGAELVKPGASVKLSCTGFGFNIKDYYMHWVKQRAEQGLEWIGRIDPEDGETKYAPKFQGKATITADTSSNTAYLQVSSLTSEDTAVYYCARGGNFYVMDYWGQGTSVTVSS
VL: DIVMTQSQKFMSTSVGDRVSVTCKASQNVGTNVVWYQQKPGQSPKVLIYSASYRVSGVPDRFTGSGSGTDFTLIISNVQSEDLAEYFCQQKNNYPYTFGGGTKLEIK
notes: also called chimeric 8G11
B3: 8G11 Fab (Fab, V domains shown)
VH: B2 VH
VL: B2 VL

How the values were obtained:
[1] = molecular target: T1, hIFNAR-1(1aa-409aa) L274A; assay: flow cytometry on alanine scan clone, normalised to WT
Source text: (§1) For each point, background fluorescence was subtracted from the raw data, which were then normalized to Fab reactivity with WT target protein. For each mutant clone, the mean binding value was plotted as a function of expression (represented by control reactivity).

[2] = molecular target: T2, hIFNAR-1(1aa-409aa) H273A; assay: as above
Source text: as §1

[3] = molecular target: T3, hIFNAR-1(1aa-409aa) Y275A; assay: as above
Source text: as §1

[4] = molecular target: T4, hIFNAR-1(1aa-409aa) K276A; assay: as above
Source text: as §1

[5] = molecular target: T5, hIFNAR-1(1aa-409aa) K278A; assay: as above
Source text: as §1

human IFNAR-1 on cells = molecular target: T6, human IFNAR-1 on cells; assay: cell-based or functional assay
[6] = molecular target: T7, human IFNAR-1 protein (form not stated); assay: ELISA on human IFNAR-1 protein

Binder | Binding Reactivity (% WT) [1] | Binding Reactivity (% WT) [2] | Binding Reactivity (% WT) [3] | Binding Reactivity (% WT) [4] | Binding Reactivity (% WT) [5] | EC50 (nM), IFNα2b-mediated anti-viral assay (Huh7-Con1b HCV replicon luciferase) (human IFNAR-1 on cells) | EC50 (read off the curve) [6]
B1 | 106 % WT | 88.1 % WT | 146 % WT | 99.4 % WT | 105 % WT |  | 
B2 |  |  |  |  |  | 7.73 nM | ~0.1 nM
B3 | 22.7 % WT | 31.2 % WT | 19.1 % WT | 1.5 % WT | 3.9 % WT |  | 
